Holding throughout (assay): positional peptide library pulldown on immobilised Nb, LC-MS of supernatant; signal ratio to control GFP-Nb (1 = not captured, near 0 = captured)
One assay deals with T1, BC2T V7W.
T1 construct: positional scanning library member
T1 peptide: Ac-PDRKAAWSHWQQ-NH2
Put shortly: (§1)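 Unbound peptide left in supernatant after 1 h pulldown in PBS/0.01% CHAPS measured by reversed-phase LC-MS (8–30% eluent B gradient, 20 min).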

The next assay addresses T2, BC2T R3D.
T2 construct: positional scanning library member
T2 peptide: Ac-PDDKAAVSHWQQ-NH2
Put shortly: as §1

In another assay the target is T3, BC2T A6F.
T3 construct: positional scanning library member
T3 peptide: Ac-PDRKAFVSHWQQ-NH2
Put shortly: as §1

The next assay concerns the target T4, BC2T R3C(Abu) (SMILES …).
T4 construct: positional scanning library member
T4 peptide: Ac-PD[GABA]KAAVSHWQQ-NH2
Put shortly: as §1

Another assay addresses T5, BC2T D2T.
T5 construct: positional scanning library member
T5 peptide: Ac-PTRKAAVSHWQQ-NH2
Put shortly:
as §1

For another assay, the target named is T6, BC2T A6N.
T6 construct: positional scanning library member
T6 peptide: Ac-PDRKANVSHWQQ-NH2
Put shortly: as §1

The target in a further assay is T7, BC2T D2F.
T7 construct: positional scanning library member
T7 peptide: Ac-PFRKAAVSHWQQ-NH2
Put shortly:
as §1

The target of the next assay is T8, BC2T A5N.
T8 construct: positional scanning library member
T8 peptide: Ac-PDRKNAVSHWQQ-NH2
Put shortly: as §1

In the next assay the target is T9, BC2T R3E.
T9 construct: positional scanning library member
T9 peptide: Ac-PDEKAAVSHWQQ-NH2
Put shortly: as §1

The next assay deals with T10, BC2T D2S.
T10 construct: positional scanning library member
T10 peptide: Ac-PSRKAAVSHWQQ-NH2
Put shortly: as §1

In another assay the target is T11, BC2T K4D.
T11 construct: positional scanning library member
T11 peptide: Ac-PDRDAAVSHWQQ-NH2
Put shortly:
as §1

Another assay addresses T12, BC2T D2N.
T12 construct: positional scanning library member
T12 peptide: Ac-PNRKAAVSHWQQ-NH2
Put shortly:
as §1

The target in the next assay is T13, BC2T P1R.
T13 construct: positional scanning library member
T13 peptide: Ac-RDRKAAVSHWQQ-NH2
Put shortly: as §1

For a further assay, the target named is T14, BC2T P1Y.
T14 construct: positional scanning library member
T14 peptide: Ac-YDRKAAVSHWQQ-NH2
Put shortly:
as §1

The target of another assay is T15, BC2T D2K.
T15 construct: positional scanning library member
T15 peptide: Ac-PKRKAAVSHWQQ-NH2
Put shortly:
as §1

Another assay deals with T16, BC2T A6W.
T16 construct: positional scanning library member
T16 peptide: Ac-PDRKAWVSHWQQ-NH2
Put shortly:
as §1

The next assay has as its target T17, BC2T A6P.
T17 construct: positional scanning library member
T17 peptide: Ac-PDRKAPVSHWQQ-NH2
Put shortly:
as §1

Another assay concerns the target T18, BC2T K4R.
T18 construct: positional scanning library member
T18 peptide: Ac-PDRRAAVSHWQQ-NH2
Put shortly:
as §1

Another assay concerns the target T19, BC2T Q11D.
T19 construct: positional scanning library member
T19 peptide: Ac-PDRKAAVSHWDQ-NH2
Put shortly:
as §1

Another assay concerns the target T20, BC2T Q11E.
T20 construct: positional scanning library member
T20 peptide: Ac-PDRKAAVSHWEQ-NH2
Put shortly: as §1

The target in assay [1] is T21, BC2T peptide PDRKAAVSHWQQ (human).
T21 construct: aa 16-27 of beta-catenin; also called BC2-tag; BC2-peptide
T21 peptide: Ac-PDRKAAVSHWQQ-NH2
Put shortly:
as §1

Positions count from the first letter of the chain named. Square brackets hold non-standard residues; d marks the D form. GABA = NCCCC(=O)O

B1: BC2-NbR106E (VHH)
VHH: QVQLVESGGGLVQPGGSLTLSCTASGFTLDHYDIGWFRQAPGKEREGVSCINNSDDDTYYADSVKGRFTIFMDNAKDTVYLQMNSLKPEDTAIYYCAEARGCKRGEYEYDFWGQGTQVTVSS
notes: headlock mutant of BC2-Nb; immobilised on beads in this assay
Take B1: the ratio with BC2T V7W came to 0.2; with BC2T R3D it was 1; with BC2T A6F it was 1; in the assay with BC2T R3C(Abu), 0.9; in the assay with BC2T D2T, 0.1; in the assay with BC2T A6N, 1. Also, the ratio with BC2T D2F was determined as 0.2; in the assay with BC2T A5N, 0.3; in the assay with BC2T R3E, 1; with BC2T D2S it was 0.2; with BC2T K4D it was 1; with BC2T D2N, 0.2. In addition, the ratio in the assay with BC2T P1R stood at 0.2; in the assay with BC2T P1Y, 0.2; with BC2T D2K, 0.1; with BC2T A6W, 1; in the assay with BC2T A6P, 1.1; with BC2T K4R, 0.1.

B2: BC2 nanobody (VHH)
VHH: B1 VHH with E106R
notes: immobilised on beads in this assay; also called BC2-Nb; BC2 nanotrap (immobilised)
B2: the results for the ratio (with BC2T Q11D; with BC2T Q11E; in [1]) were 0.2, 0.1 and 0.1, respectively.

These data come from patent publication US20170137467A1 (CHROMOTEK, published 2017).
